B1: 14-3-3 protein sigma (Homo sapiens), P31947 (parent)
chain: MERASLIQKAKLAEQAERYEDMAAFMKGAVEKGEELSCEERNLLSVAYKNVVGGQRAAWRVLSSIEQKSNEEGSEEKGPEVREYREKVETELQGVCDTVLGLLDSHLIKEAGDAESRVFYLKMKGDYYRYLAEVATGDDKKRIIDSARSAYQEAMDISKKEMPPTNPIRLGLALNFSVFHYEIANSPEEAISLAKTTFDEAMADLHTLSEDSYKDSTLIMQLLRDNLTLWTADNAGEEGGEAPQEPQS
partner: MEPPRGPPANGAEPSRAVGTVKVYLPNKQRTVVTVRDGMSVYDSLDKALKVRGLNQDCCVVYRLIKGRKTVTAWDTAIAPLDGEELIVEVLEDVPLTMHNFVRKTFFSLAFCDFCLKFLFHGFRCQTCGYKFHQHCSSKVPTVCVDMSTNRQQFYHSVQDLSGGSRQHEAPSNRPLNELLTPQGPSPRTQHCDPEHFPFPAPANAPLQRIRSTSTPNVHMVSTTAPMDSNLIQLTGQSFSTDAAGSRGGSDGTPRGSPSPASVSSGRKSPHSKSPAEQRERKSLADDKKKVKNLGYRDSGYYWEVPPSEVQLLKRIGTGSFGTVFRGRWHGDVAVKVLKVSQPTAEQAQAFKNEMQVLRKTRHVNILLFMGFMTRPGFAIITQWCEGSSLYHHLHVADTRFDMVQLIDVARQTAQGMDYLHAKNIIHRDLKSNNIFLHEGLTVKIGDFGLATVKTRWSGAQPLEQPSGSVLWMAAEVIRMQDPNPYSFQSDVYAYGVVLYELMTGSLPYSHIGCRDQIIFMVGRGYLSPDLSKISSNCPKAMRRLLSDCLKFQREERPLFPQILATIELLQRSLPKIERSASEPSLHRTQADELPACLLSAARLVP
B2: 14-3-3 protein sigma (Homo sapiens), P31947 (parent)
chain: B1 chain
partner: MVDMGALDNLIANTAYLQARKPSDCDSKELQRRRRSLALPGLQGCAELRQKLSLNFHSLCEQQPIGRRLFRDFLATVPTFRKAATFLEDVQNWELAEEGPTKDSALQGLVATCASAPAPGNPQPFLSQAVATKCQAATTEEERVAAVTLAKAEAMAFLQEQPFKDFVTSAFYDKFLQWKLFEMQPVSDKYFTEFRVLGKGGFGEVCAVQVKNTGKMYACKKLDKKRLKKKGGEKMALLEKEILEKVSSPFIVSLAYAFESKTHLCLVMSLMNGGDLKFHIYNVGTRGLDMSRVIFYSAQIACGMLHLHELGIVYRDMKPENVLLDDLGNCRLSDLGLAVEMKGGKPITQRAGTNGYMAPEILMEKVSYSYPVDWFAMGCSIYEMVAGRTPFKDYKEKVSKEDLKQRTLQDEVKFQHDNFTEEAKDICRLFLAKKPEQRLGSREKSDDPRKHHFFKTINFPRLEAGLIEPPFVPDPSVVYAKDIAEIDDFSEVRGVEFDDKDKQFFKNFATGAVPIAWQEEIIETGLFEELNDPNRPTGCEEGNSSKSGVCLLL
B3: 14-3-3 protein sigma (Homo sapiens), P31947 (parent)
chain: B1 chain
partner: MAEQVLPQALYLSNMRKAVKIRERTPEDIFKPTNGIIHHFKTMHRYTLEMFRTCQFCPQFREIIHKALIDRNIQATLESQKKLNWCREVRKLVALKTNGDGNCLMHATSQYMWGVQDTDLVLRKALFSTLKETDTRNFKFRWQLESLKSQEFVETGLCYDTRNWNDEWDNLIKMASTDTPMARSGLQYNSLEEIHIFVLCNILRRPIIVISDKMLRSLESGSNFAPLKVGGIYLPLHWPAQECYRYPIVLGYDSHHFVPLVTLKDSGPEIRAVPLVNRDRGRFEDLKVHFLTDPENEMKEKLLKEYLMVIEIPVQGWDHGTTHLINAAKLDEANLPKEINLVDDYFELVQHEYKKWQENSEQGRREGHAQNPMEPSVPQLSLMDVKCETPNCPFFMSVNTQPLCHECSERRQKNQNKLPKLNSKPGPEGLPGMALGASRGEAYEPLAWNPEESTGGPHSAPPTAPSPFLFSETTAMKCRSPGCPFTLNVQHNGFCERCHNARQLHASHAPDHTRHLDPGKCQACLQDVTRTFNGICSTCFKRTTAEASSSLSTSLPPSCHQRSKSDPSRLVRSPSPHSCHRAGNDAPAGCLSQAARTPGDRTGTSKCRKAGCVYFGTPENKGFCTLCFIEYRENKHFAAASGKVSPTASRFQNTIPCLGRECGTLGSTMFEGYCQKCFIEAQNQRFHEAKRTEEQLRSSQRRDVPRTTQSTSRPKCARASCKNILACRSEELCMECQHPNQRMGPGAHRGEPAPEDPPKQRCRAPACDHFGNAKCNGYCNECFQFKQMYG
B4: 14-3-3 protein sigma (Homo sapiens), P31947 (parent)
chain: B1 chain
partner: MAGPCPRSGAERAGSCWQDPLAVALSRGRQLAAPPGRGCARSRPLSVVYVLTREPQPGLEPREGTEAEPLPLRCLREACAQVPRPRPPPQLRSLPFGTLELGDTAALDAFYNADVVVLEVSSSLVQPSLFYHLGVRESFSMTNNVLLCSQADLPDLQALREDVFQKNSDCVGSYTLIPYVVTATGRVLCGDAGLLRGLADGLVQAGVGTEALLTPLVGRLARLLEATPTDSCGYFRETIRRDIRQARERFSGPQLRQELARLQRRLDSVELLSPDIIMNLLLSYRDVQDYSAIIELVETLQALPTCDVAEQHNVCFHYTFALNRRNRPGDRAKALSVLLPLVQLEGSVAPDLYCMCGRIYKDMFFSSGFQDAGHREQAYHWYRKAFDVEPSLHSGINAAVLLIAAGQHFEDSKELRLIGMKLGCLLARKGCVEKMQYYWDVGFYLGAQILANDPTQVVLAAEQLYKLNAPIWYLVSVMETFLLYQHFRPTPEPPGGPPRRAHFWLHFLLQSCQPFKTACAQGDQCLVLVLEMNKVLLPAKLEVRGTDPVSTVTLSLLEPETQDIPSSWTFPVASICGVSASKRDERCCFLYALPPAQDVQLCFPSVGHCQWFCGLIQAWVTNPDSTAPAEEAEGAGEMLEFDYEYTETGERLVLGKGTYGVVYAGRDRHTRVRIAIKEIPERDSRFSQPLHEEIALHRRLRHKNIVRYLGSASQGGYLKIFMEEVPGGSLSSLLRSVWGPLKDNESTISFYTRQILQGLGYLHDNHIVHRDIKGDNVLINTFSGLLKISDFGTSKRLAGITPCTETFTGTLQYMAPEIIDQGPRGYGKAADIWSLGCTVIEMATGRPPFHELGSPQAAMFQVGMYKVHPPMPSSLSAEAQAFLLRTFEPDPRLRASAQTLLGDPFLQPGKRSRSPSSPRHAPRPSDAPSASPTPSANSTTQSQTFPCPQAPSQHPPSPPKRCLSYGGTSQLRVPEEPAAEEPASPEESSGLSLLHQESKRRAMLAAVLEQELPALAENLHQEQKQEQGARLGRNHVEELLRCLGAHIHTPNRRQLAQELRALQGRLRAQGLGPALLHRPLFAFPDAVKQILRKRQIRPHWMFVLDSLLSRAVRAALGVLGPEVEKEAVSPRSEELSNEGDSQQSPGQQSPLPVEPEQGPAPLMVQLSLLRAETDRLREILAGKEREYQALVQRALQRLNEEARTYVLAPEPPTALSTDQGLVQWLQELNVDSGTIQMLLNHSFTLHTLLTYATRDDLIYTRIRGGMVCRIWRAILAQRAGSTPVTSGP
B5: 14-3-3 protein sigma (Homo sapiens), P31947 (parent)
chain: B1 chain
partner: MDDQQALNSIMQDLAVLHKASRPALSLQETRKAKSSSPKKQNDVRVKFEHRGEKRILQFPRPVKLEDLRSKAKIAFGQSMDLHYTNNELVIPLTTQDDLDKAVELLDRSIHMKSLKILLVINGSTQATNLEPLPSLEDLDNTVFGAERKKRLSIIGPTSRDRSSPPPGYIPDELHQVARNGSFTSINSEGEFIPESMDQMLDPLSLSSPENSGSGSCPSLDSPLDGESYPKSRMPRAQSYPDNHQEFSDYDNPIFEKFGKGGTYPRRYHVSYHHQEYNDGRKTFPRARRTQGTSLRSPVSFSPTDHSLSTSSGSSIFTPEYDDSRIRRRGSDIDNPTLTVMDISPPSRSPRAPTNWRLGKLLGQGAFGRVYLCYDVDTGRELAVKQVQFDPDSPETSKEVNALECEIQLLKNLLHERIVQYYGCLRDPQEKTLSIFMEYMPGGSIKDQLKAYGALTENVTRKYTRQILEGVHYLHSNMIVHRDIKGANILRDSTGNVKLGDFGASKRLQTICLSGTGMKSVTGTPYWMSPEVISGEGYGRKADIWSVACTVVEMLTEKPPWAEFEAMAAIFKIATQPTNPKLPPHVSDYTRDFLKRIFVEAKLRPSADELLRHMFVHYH
B6: 14-3-3 protein sigma (Homo sapiens), P31947 (parent)
chain: B1 chain
partner: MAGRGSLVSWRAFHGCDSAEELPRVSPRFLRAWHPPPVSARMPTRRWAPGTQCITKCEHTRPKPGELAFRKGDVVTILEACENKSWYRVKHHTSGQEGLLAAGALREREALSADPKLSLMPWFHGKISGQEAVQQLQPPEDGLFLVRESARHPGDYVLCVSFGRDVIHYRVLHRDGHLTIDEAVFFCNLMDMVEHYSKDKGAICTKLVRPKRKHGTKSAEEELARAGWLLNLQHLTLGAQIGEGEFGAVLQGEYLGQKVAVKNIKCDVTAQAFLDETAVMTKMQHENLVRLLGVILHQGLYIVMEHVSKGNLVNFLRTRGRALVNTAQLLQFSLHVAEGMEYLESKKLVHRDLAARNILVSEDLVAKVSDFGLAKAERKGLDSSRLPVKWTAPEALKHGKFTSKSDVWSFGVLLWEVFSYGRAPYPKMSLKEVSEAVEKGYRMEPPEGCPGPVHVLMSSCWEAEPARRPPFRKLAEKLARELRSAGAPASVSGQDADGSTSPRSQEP

Variants of: B1
Conditions: with araf_human ARAF

effect of a mutation on the interaction	Variant
decreasing interaction strength	K49E;R56E;V178D

Variants of: B2
Conditions: with grk7_human GRK7, Q8WTQ7

effect of a mutation on the interaction	Variant
decreasing interaction strength	K49E;R56E;V178D

Variants of: B3
Conditions: with tnap3_human TNFAIP3, P21580

effect of a mutation on the interaction	Variant
decreasing interaction strength	K49E;R56E;V178D

Variants of: B4
Conditions: with m3k6_human MAP3K6, O95382

effect of a mutation on the interaction	Variant
decreasing interaction strength	K49E;R56E;V178D

Variants of: B5
Conditions: with m3k2_human MAP3K2, Q9Y2U5

effect of a mutation on the interaction	Variant
decreasing interaction strength	K49E;R56E;V178D

Variants of: B6
Conditions: with matk_human MATK

effect of a mutation on the interaction	Variant
decreasing interaction strength	K49E;R56E;V178D

Reference: IntAct's records for PubMed 36931259
